Experiment [1] has as its target T1, IscU_(I108M)-(his)6, E. coli IscU with the Ile108Met substitution (E. coli, UniProt P0ACD4 1-128, I108M).
T1 construct: IscU, Fe-S cluster scaffold protein of E. coli K-12 MG1655; coding region amplified from pIscUIM and cloned NdeI/HindIII into pET21a+; the methods say the proteins were mixed with Fe(SO4)2(NH4)2, L-cysteine and DTT; By gel filtration it exists mainly as a dimer; also called IscUIM; His-tagged IscUIM; not shown: His6, C-terminal, kept
Kind of experiment: co-elution on anion exchange chromatography (QFF); purified His-tagged proteins mixed anaerobically 1:1:1 (144 uM each) for 40 min with 4-fold excess Fe(SO4)2(NH4)2, 10-fold excess L-cysteine, 5 mM DTT in 50 mM Tris-HCl pH 8; loaded on a 1-mL QFF column, eluted with a gradient to 1 M NaCl; fractions analysed by SDS-PAGE; the single proteins elute at lower salt. Conditions: both partners purified.

Experiment [2] deals with T2, (his)6-IscS, E. coli cysteine desulfurase IscS (E. coli, UniProt P0A6B7 1-404).
T2 construct: IscS, cysteine desulfurase of E. coli; not shown: His6, N-terminal, kept
The description is as above. Conditions: both partners purified.

B1: CyaY-(his)6, E. coli frataxin homolog CyaY (natural protein, UniProt P27838 1-106, looked up)
chain: MNDSEFHRLADQLWLTIEERLDDWDGDSDIDCEINGGVLTITFENGSKIIINRQEPLHQVWLATKQGGYHFDLKGDEWICDRSGETFWDLLEQAATQQAGETVSFR
notes: CyaY, frataxin homolog of E. coli; not shown: His6, C-terminal, kept
In the case of B1, the binding result in experiment [1] and in experiment [2] was “binds” in each case.

Source of the values: article PMC4440780, “Turning Escherichia coli into a Frataxin-Dependent Organism” (PLoS Genetics, 2015).
